Data set [1] in a line: Release from delayed-release particles in Simulated Gastric Fluid (dissolution apparatus, HPLC). The format is physicochemical. As to conditions: delayed-release particles containing 4-6% peptide; SGF containing 0.1% v/v Tween 80K, 37° C.; time course of 60 minutes. Here is the method: (§1) The stability of delayed-release particles containing 4-6% tight junction antagonist peptide (SEQ ID NO: 1) was performed. Delayed-release particles prepared as described above were exposed to Simulated Gastric Fluid (SGF) containing 0.1% v/v Tween 80K under controlled temperature (37° C.±0.5° C.) and agitation in a dissolution apparatus for 1 hour. The beads were removed from the SGF and exposed to Simulated Intestinal Fluid (SIF) containing 0.1% v/v Tween 80K. Samples were pulled from the bath and analyzed by HPLC at 220 nm on a Inertsil ODS-2 HPLC Column (150 mm×3 mm, 5 μm) with an Inertsil ODS-2 HPLC Guard Column (20 mm×4.6 […], 5 μm). Mobile Phase A: 92:8 Water:ACN, 0.1% TFA Mobile Phase B: ACN, 0.1% TFA). The chromatographic conditions are shown below.
(§2) • Run time: 17 min • Detection: 220 nm • Response time: 0.5 sec • Column Temp.: 40° C.±1° C. • Auto Sampler Temp: 10° C.±2° c. • Injection Volume: 5 μl of solution
(§3) The percentage of total tight junction effector released is determined by comparison to a reference standard of the effector.
Simulated Gastric Fluid may be prepared as follows: per liter, place the following into a container: 2.0 gram sodium chloride, 7.0 mL concentrated hydrochloric acid, and 1.0 L water. Stir until completely dissolved. Check the pH and adjust to 1.2±0.1 with dilute HCl or NaOH. De-aerate medium. To this solution Tween 80 was added to 0.1% (v/v). […]

Data set [2] in a line: Release from delayed-release particles in Simulated Intestinal Fluid (dissolution apparatus, HPLC). The format is physicochemical. Particulars: delayed-release particles containing 4-6% peptide, SIF containing 0.1% v/v Tween 80K, after 1 hour in SGF. On the procedure: as §1, §2, §3
SIF can be prepared as follows: place the following into a container: 1.9 Kg distilled water, 136 g monobasic potassium phosphate, and 18.1 gram of sodium hydroxide. Stir until completely dissolved. Dilute the solution with 18.0 Kg water. Check the pH and adjust to 6.8±0.1 with dilute HCl or NaOH. De-aerated medium. […]

The test system of data set [3] is rabbit ileal mucosa. Particulars: cited from earlier work.

On to “GGVLVQPG [SEQ ID NO:1, tight junction antagonist peptide]”, for which the “antagonist peptide released in simulated gastric fluid” value in data set [1] is “less than 8%”. For the same substance, the “antagonist peptide released in simulated intestinal fluid within 15 minutes” value in data set [2] (within 15 minutes) is listed as “Over 90%”. In data set [2] (within 60 minutes), the “antagonist peptide released in simulated intestinal fluid within 60 minutes” value is on record as “essentially all”.

As to “ZOT: Zonula occludens toxin produced by Vibrio cholerae; tight junction agonist”, in data set [3], the “effect on intestinal permeability” value is on record as “increased the intestinal permeability”.

Values taken from patent US8168594B2, “Method for treating celiac disease” (Alba Therapeutics Corporation, priority 2006, dated 2012).
